{"source": "paper PMC4132713", "conditions_in_all_cases": "SPR: TBS (50 mM Tris-HCl, 150 mM NaCl, pH 6.8) or TBS-KCl (150 mM KCl instead of NaCl), 1-32 nM DARPin on 300-500 RU biotinylated DNA; ELISA: 100 nM …", "key": {"[1]": {"system": "DARPin 2D10 (synthetic construct)", "test": "competition SPR"}, "[2]": {"system": "DARPin 1C11 (synthetic construct)", "test": "competition SPR"}, "[3]": {"system": "DARPin 2G7 (synthetic construct)", "test": "competition SPR"}, "[4]": {"system": "DARPin 2C10 (synthetic construct)", "test": "competition SPR"}, "[5]": {"system": "DARPin 2E4 (synthetic construct)", "test": "competition SPR"}, "[6]": {"system": "DARPin 1C7 (synthetic construct)", "test": "competition SPR"}, "[7]": {"system": "DARPin 1G2 (synthetic construct)", "test": "competition SPR"}, "[8]": {"system": "DARPin 1H4 (synthetic construct)", "test": "competition SPR"}, "[9]": {"system": "DARPin 2D10 (synthetic construct)", "test": "competition SPR", "remark": "listed apart in the source"}, "[10]": {"system": "DARPin 1C11 (synthetic construct)", "test": "competition SPR", "remark": "listed apart in the source"}, "[11]": {"system": "DARPin 2G7 (synthetic construct)", "test": "competition SPR", "remark": "listed apart in the source"}, "[12]": {"system": "DARPin 2C10 (synthetic construct)", "test": "competition SPR", "remark": "listed apart in the source"}, "[13]": {"system": "DARPin 1C7 (synthetic construct)", "test": "competition SPR", "remark": "listed apart in the source"}, "[14]": {"system": "DARPin 1G2 (synthetic construct)", "test": "competition SPR", "remark": "listed apart in the source"}, "[15]": {"system": "DARPin 1H4 (synthetic construct)", "test": "competition SPR", "remark": "listed apart in the source"}, "[16]": {"system": "DARPin 1C6 (synthetic construct)", "test": "competition SPR"}, "[17]": {"system": "DARPin 1C11 (synthetic construct)", "test": "SPR"}, "[18]": {"system": "DARPin 1G11 (synthetic construct)", "test": "SPR"}, "[19]": {"system": "DARPin 1C7 (synthetic construct)", "test": "SPR"}, "[20]": {"system": "DARPin 1G2 (synthetic construct)", "test": "SPR"}, "[21]": {"system": "DARPin 1C11 (synthetic construct)", "test": "SPR", "remark": "listed apart in the source"}, "[22]": {"system": "DARPin 2G10 (synthetic construct)", "test": "SPR"}, "[23]": {"system": "DARPin 1C7 (synthetic construct)", "test": "SPR", "remark": "listed apart in the source"}, "[24]": {"system": "DARPin 1G2 (synthetic construct)", "test": "SPR", "remark": "listed apart in the source"}, "[25]": {"system": "DARPin 2G10 (synthetic construct)", "test": "SPR", "remark": "listed apart in the source"}, "[26]": {"system": "DARPin 2E4 (synthetic construct)", "test": "SPR"}, "[27]": {"system": "DARPin 2E4 (synthetic construct)", "test": "SPR", "remark": "listed apart in the source"}, "[28]": {"system": "DARPin 2D10 (synthetic construct)", "test": "SPR"}, "[29]": {"system": "DARPin 2G7 (synthetic construct)", "test": "SPR"}, "[30]": {"system": "DARPin 2C10 (synthetic construct)", "test": "SPR"}, "[31]": {"system": "DARPin 1H4 (synthetic construct)", "test": "SPR"}, "[32]": {"system": "DARPin 1C6 (synthetic construct)", "test": "SPR"}, "[33]": {"system": "DARPin 2D10 (synthetic construct)", "test": "SPR", "remark": "listed apart in the source"}, "[34]": {"system": "DARPin 2G7 (synthetic construct)", "test": "SPR", "remark": "listed apart in the source"}, "[35]": {"system": "DARPin 2C10 (synthetic construct)", "test": "SPR", "remark": "listed apart in the source"}, "[36]": {"system": "DARPin 1H4 (synthetic construct)", "test": "SPR", "remark": "listed apart in the source"}}, "note": "Values joined by “and” are separate entries in the source; they are usually repeats but may differ in a detail not shown here. Equal values may be shown once."}
{"sequence": "TTAGGGTTAGGGTTAGGGTTAGGG [tel (non-biotinylated)]", "values": [{"measurement": "Kd", "setting": "[1]", "result": 160, "unit": "nM"}, {"measurement": "Kd", "setting": "[2]", "result": 72, "unit": "nM"}, {"measurement": "Kd", "setting": "[3]", "result": 8, "unit": "nM"}, {"measurement": "Kd", "setting": "[4]", "result": 160, "unit": "nM"}, {"measurement": "Kd", "setting": "[5]", "result": 120, "unit": "nM"}, {"measurement": "Kd", "setting": "[6]", "result": 160, "unit": "nM"}, {"measurement": "Kd", "setting": "[7]", "result": 3.6, "unit": "nM"}, {"measurement": "Kd", "setting": "[8]", "result": 19, "unit": "nM"}, {"measurement": "Kd", "setting": "[9]", "result": 110, "unit": "nM"}, {"measurement": "Kd", "setting": "[10]", "result": 100, "unit": "nM"}, {"measurement": "Kd", "setting": "[11]", "result": 32, "unit": "nM"}, {"measurement": "Kd", "setting": "[12]", "result": 67, "unit": "nM"}, {"measurement": "Kd", "setting": "[13]", "result": 110, "unit": "nM"}, {"measurement": "Kd", "setting": "[14]", "result": 69, "unit": "nM"}, {"measurement": "Kd", "setting": "[15]", "result": 81, "unit": "nM"}, {"measurement": "Kd", "setting": "[16]", "result": 56, "unit": "nM"}]}
{"sequence": "CAGGGGTGTGGGGACAGGGGTGTGGGGAC [ILPR]", "values": [{"measurement": "Kd", "setting": "[17]", "result": 43, "unit": "nM"}, {"measurement": "Kd", "setting": "[18]", "result": 44, "unit": "nM"}, {"measurement": "Kd", "setting": "[19]", "result": 33, "unit": "nM"}, {"measurement": "Kd", "setting": "[20]", "result": 27, "unit": "nM"}, {"measurement": "Kd", "setting": "[21]", "result": "12 nM and 4 nM"}, {"measurement": "Kd", "setting": "[22]", "result": "22 nM and 19 nM"}, {"measurement": "Kd", "setting": "[23]", "result": "21 nM and 14 nM"}, {"measurement": "Kd", "setting": "[24]", "result": "9.4 nM and 6.4 nM"}]}
{"sequence": "TGAGGGTGGGTAGGGTGGGTAA [c-MYC]", "values": [{"measurement": "Kd", "setting": "[17]", "result": 49, "unit": "nM"}, {"measurement": "Kd", "setting": "[25]", "result": 90, "unit": "nM"}, {"measurement": "Kd", "setting": "[18]", "result": 19, "unit": "nM"}, {"measurement": "Kd", "setting": "[26]", "result": 64, "unit": "nM"}, {"measurement": "Kd", "setting": "[19]", "result": 81, "unit": "nM"}, {"measurement": "Kd", "setting": "[20]", "result": 43, "unit": "nM"}, {"measurement": "Kd", "setting": "[21]", "result": "17 nM and 6.8 nM"}, {"measurement": "Kd", "setting": "[22]", "result": "100 nM and 15 nM"}, {"measurement": "Kd", "setting": "[27]", "result": "28 nM and 19 nM"}, {"measurement": "Kd", "setting": "[24]", "result": "16 nM and 14 nM"}]}
{"sequence": "TTAGGGTTAGGGTTAGGGTTAGGG [tel (biotinylated)]", "values": [{"measurement": "Kd", "setting": "[28]", "result": 34, "unit": "nM"}, {"measurement": "Kd", "setting": "[17]", "result": 53, "unit": "nM"}, {"measurement": "Kd", "setting": "[29]", "result": 20, "unit": "nM"}, {"measurement": "Kd", "setting": "[18]", "result": 72, "unit": "nM"}, {"measurement": "Kd", "setting": "[30]", "result": 48, "unit": "nM"}, {"measurement": "Kd", "setting": "[19]", "result": 37, "unit": "nM"}, {"measurement": "Kd", "setting": "[20]", "result": 53, "unit": "nM"}, {"measurement": "Kd", "setting": "[31]", "result": 62, "unit": "nM"}, {"measurement": "Kd", "setting": "[32]", "result": 16, "unit": "nM"}, {"measurement": "Kd", "setting": "[33]", "result": "18 nM and 22 nM"}, {"measurement": "Kd", "setting": "[21]", "result": "11 nM and 8.9 nM"}, {"measurement": "Kd", "setting": "[34]", "result": "10 nM and 5.5 nM"}, {"measurement": "Kd", "setting": "[22]", "result": "65 nM and 15 nM"}, {"measurement": "Kd", "setting": "[35]", "result": "20 nM and 35 nM"}, {"measurement": "Kd", "setting": "[27]", "result": "4.6 nM and 42 nM"}, {"measurement": "Kd", "setting": "[23]", "result": "15 nM and 3.3 nM"}, {"measurement": "Kd", "setting": "[24]", "result": "7.9 nM and 3.3 nM"}, {"measurement": "Kd", "setting": "[36]", "result": "15 nM and 14 nM"}]}
